Test results published in publication PMC3315512, “The Lid Domain of Caenorhabditis elegans Hsc70 Influences ATP Turnover, Cofactor Binding and Protein Folding Activity” (PLoS ONE, 2012).

What was measured:
[1] = target: T1, His6-CeHsc70 (Caenorhabditis elegans Hsc70, HSP-1) (C. elegans, UniProt P09446 1-640); test: cell-based or functional assay
[2] = target: T1, His6-CeHsc70 (Caenorhabditis elegans …); test: AUC; competition: 15 µM BAG-1 added to 300 nM *DNJ-13, 3 µM CeHsc70 and 4 mM ATP; sedimentation velocity with fluorescence detection; dc/dt analysis; conditions: both partners purified
[3] = target: the molecule itself; test: AUC; sedimentation velocity with fluorescence detection, 300 nM *DNJ-13 alone, 20°C, 42 000 rpm; whole boundary fitting and C(s) (UltraScan)

T1 sequence (P09446 whole entry): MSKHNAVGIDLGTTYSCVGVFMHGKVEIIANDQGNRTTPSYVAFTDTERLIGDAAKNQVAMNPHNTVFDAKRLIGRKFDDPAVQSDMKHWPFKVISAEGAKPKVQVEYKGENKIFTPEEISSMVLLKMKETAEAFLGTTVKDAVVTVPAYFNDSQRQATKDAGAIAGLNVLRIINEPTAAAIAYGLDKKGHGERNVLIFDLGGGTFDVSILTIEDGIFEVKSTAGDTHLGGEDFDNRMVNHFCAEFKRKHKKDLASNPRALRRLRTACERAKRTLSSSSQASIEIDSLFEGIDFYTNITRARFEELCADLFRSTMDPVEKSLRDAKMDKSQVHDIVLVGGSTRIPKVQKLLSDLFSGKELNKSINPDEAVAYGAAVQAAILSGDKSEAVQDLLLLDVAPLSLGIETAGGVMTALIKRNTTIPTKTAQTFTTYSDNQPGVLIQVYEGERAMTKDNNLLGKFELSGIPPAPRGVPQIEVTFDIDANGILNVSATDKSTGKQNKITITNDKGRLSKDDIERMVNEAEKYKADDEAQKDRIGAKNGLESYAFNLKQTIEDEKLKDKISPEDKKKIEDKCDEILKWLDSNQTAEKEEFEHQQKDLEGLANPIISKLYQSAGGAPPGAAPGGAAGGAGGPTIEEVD

B1: DNJ-13 (C. elegans, unlabelled) (natural protein)
chain: not shown
In the case of B1, the “apparent KD of DNJ-13 from titration of the steady-state ATPase activity of 1 µM CeHsc70 in the presence of 2 µM BAG-1, standard buffer, 25°C” value [1] is reported as 6.8 µM.

B2: BAG-1 (C. elegans, unlabelled) (natural protein, UniProt O44739 1-210, looked up)
chain: MKVNVSCSSVQTTIDILEENQGEDESILTLGQLRDRIATDNDVDVETMKLLHRGKFLQGADDVSLSTLNFKENDKIIVMGGKNALVDDAGFKMLMQYEKHNLSNLQKAYDLNLRDVADLERGFLEKPKQVEMGKKLEKKVKYFNEEAERHLETLDGMNIITETTPENQAKRNREKRKTLVNGIQTLLNQNDALLRRLQEYQSVLNGDIPE
notes: BAG-1, nucleotide exchange factor of C. elegans, full-length, cloned from a C. elegans cDNA preparation; a His tag is surmised from the HisTrap column; also called nematodal BAG-1; source: E. coli BL21-CodonPlus (DE3)-RIL, purified (HisTrap, ResourceQ, Superdex 75)
B2: binds [2].

B3: *DNJ-13 (C. elegans DNJ-13 labelled with carboxyfluorescein) (natural protein)
chain: not shown
modifications: 5-(and-6)-carboxyfluorescein succinimidylester, preferential labeling at the N-terminal amine group (labelling efficiency 1.2)
notes: DNJ-13, Hsp40-like J-domain protein of C. elegans (Sis1 / DNAJB homolog); also called fluorescently labeled DNJ-13; source: E. coli BL21-CodonPlus (DE3)-RIL, purified (HisTrap, ResourceS, Superdex 75), then labelled
In the case of B3, the “stoichiometry N” value [3] is reported as 2.
